From patent US20150368340A1 (US Dept. of Health and Human Services, published 2015)

Columns and labels:
[1] = target: cell surface-associated glypican-3 (GPC3) (human) (UniProt P51654); experiment: co-IP of GPC3 and Wnt3a from HepG2 xenograft tumor tissue after three weeks of 20 mg/kg HS20 (mutated form); blocked partner Wnt3a (FIG. 17B)
[2] = target: T1, cell surface-associated glypican-3 (GPC3) (human, UniProt P51654 25-554, two heparan sulfate (HS) chains on the C-terminal portion; GPI anchor); experiment: cell-based or functional assay
[3] = target: T1, cell surface-associated glypican-3 …; experiment: cell-based or functional assay; remark: listed apart in the source
[4] = target: cell surface-associated glypican-3 (GPC3) (human) (UniProt P51654); experiment: cell-based or functional assay
[5] = target: T2, recombinant human GPC3 with His tag (GPC3-his) (human, UniProt P51654 25-559, heparan sulfate chains); experiment: ELISA on recombinant GPC3 protein (FIG. 13B)
T2 construct: range 25-559; also called GPC3 alone; purified GPC3; not shown: six-histidine tag

[6] = target: T2, recombinant human GPC3 with His tag …; experiment: ELISA on recombinant GPC3 protein against HS molecules alone (FIG. 13B)
[7] = target: T1, cell surface-associated glypican-3 …; experiment: flow cytometry on G1 cells, HN3-hFc titrated, one-site binding fit (FIG. 4B)
[8] = target: T2, recombinant human GPC3 with His tag …; experiment: ELISA, purified GPC3 coated at 1 µg/ml, HN3-hFc titrated, one-site binding fit (FIG. 4A)
GPC3 N-terminal fragment = target: T3, GPC3 N-terminal fragment (human, UniProt P51654 25-358); experiment: phage ELISA on recombinant GPC3 fragments (FIG. 5B)
T3 construct: domain: N-terminal fragment; also called N-terminus alone

GPC3 C-terminal fragment = target: T4, GPC3 C-terminal fragment (human, UniProt P51654 359-559, limits assumed); experiment: as above
T4 construct: domain: C-terminal fragment; also called C-terminus alone
T4 sequence (looked up): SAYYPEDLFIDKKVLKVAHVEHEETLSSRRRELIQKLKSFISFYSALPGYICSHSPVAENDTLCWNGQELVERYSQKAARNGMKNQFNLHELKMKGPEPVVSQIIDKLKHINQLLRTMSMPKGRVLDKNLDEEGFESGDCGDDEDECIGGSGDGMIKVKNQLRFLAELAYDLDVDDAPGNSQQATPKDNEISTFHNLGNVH

HS20 Mt (HS20 IgG with the N-glycosylation site of the VL removed) (antibody)
percent of the GPC3-Wnt3a interaction blocked [1]: 70%

B1: HN3(VH)-PE38 immunotoxin (other)
chain: QVQLVQSGGGLVQPGGSLRLSCAASYFDFDSYEMSWVRQAPGKGLEWIGSIYHSGSTYYNPSLKSRVTISRDNSKNTLYLQMNTLRAEDTATYYCARVNMDRFDYWGQGTLVTVSSSAAKASGGPEGGSLAALTAHQACHLPLETFTRHRQPRGWEQLEQCGYPVQRLVALYLAARLSWNQVDQVIRNALASPGSGGDLGEAIREQPEQARLALTLAAAESERFVRQGTGNDEAGAANGPADSGDALLERNYPTGAEFLGDGGDVSFSTRGTQNWTVERLLQAHRQLEERGYVFVGYHGTFLEAAQSIVFGGVRARSQDLDAIWRGFYIAGDPALAYGYAQDQEPDARGRIRNGALLRVYVPRSSLPGFYRTSLTLAAPEAAGEVERLIGHPLPLRLDAITGPEEEGGRLETILGWPLAERTVVIPSAIPTDPRNVGGDLDPSSIPDKEQAISALPDYASQPGKPPREDLK
cytotoxicity IC50 (WST-8), G1 cells, molar [2]: 0.0002 nM | cytotoxicity IC50 (WST-8), Hep3B cells, molar [2]: 0.0004 nM | cytotoxicity IC50 (WST-8), HepG2 cells, molar [2]: 10 nM | cytotoxicity IC50 (WST-8), Huh-1 cells, molar [2]: 0.0012 nM | cytotoxicity IC50 (WST-8), Huh-7 cells, molar [2]: 1.3 nM | cytotoxicity IC50 (WST-8), G1 cells [3]: 0.01 ng/mL | cytotoxicity IC50 (WST-8), Hep3B cells [3]: 0.02 ng/mL | cytotoxicity IC50 (WST-8), HepG2 cells [3]: 549 ng/mL | cytotoxicity IC50 (WST-8), Huh-1 cells [3]: 0.06 ng/mL | cytotoxicity IC50 (WST-8), Huh-4 cells [3]: > 1000 ng/mL | cytotoxicity IC50 (WST-8), Huh-7 cells [3]: 64 ng/mL

B2: HS20 human IgG (HS20 Wt mAb) (antibody, V domains shown)
VH: EVQLLESGGGLVQPGGSLRLSCAASGFTFSSYAMSWVRQAPGKGLEWVSTIQKQGLPTEYADSVKGRFTISRDNSKNTLYLQMNSLRAEDTAVYYCAKNRAKFDYWGQGTLVTVSS
VL: DIQMTQSPSSLSASVGDRVTITCRASQSISSYLNWYQQKPGKAPKLLIYNASMLQSGVPSRFSGSGSGTDFTLTISSLQPEDFATYYCQQNRGFPLTFGQGTKVEIK
modifications: N-glycosylation site at residue 50 of SEQ ID NO: 16 (CDR2)
notes: also called HS20 IgG; HS20 mAb
decrease in wound closure efficiency (wound healing assay, Hep3B cells, 50 µg/ml HS20) [4]: > 30% | Kd [5]: 0.75 nM | fold stronger binding than on HS alone [6]: ≥ 1000 fold

B3: HN3-human Fc fusion protein (HN3-hFc) (Fc fusion, not shown: a dimerising Fc or GST)
chain: QVQLVQSGGGLVQPGGSLRLSCAASYFDFDSYEMSWVRQAPGKGLEWIGSIYHSGSTYYNPSLKSRVTISRDNSKNTLYLQMNTLRAEDTATYYCARVNMDRFDYWGQGTLVTVSSS
notes: also called HN3 human mAb
cell growth inhibition (WST-8), Hep3B cells, IC50 [2]: ~50000 ng/mL | cell growth inhibition (WST-8), Huh-7 cells, IC50 [2]: ~50000 ng/mL | Kd [7]: 0.15 nM | Kd [8]: 0.64 nM

B4: HN3 single-domain VH displayed on phage (clone HN3) (VHH)
VHH: QVQLVQSGGGLVQPGGSLRLSCAASYFDFDSYEMSWVRQAPGKGLEWIGSIYHSGSTYYNPSLKSRVTISRDNSKNTLYLQMNTLRAEDTATYYCARVNMDRFDYWGQGTLVTVSS
binding result (GPC3 N-terminal fragment): no binding | binding result (GPC3 C-terminal fragment): no binding
